T1: GCN4-SUN2 C705A (His6-GCN4 fusion of SUN2 522–717 C705A) (human, UniProt Q9UH99 522-717, C705A)
T1 construct: SUN2, human, SUN domain, residues 522-717, C705A; The GCN4 tag is a trimerising tag (Sosa et al., 2012); not shown: His6, N-terminal, kept; GCN4, N-terminal, kept
T1 sequence (looked up): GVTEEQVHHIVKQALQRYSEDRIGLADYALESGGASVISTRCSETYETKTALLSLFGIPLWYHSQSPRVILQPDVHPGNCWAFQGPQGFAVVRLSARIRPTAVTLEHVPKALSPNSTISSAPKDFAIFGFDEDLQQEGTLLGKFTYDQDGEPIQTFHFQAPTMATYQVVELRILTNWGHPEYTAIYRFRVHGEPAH

B1: GCN4-SUN1 (His6-GCN4 fusion of the SUN domain of human SUN1, residues 616–812), wild-type (domain or fragment)
chain: GITEAQARAIVNSALKLYSQDKTGMVDFALESGGGSILSTRCSETYETKTALMSLFGIPLWYFSQSPRVVIQPDIYPGNCWAFKGSQGYLVVRLSMMIHPAAFTLEHIPKTLSPTGNISSAPKDFAVYGLENEYQEEGQLLGQFTYDQDGESLQMFQALKRPDDTAFQIVELRIFSNWGHPEYTCLYRFRVHGEPVK
B2: GCN4-SUN2 (His6-GCN4 fusion of the SUN domain of human SUN2, residues 522–717), wild-type (domain or fragment, UniProt Q9UH99 522-717, looked up)
chain: GVTEEQVHHIVKQALQRYSEDRIGLADYALESGGASVISTRCSETYETKTALLSLFGIPLWYHSQSPRVILQPDVHPGNCWAFQGPQGFAVVRLSARIRPTAVTLEHVPKALSPNSTISSAPKDFAIFGFDEDLQQEGTLLGKFTYDQDGEPIQTFHFQAPTMATYQVVELRILTNWGHPEYTCIYRFRVHGEPAH
notes: SUN2, human, SUN domain, residues 522-717; The GCN4 tag is a trimerising tag (Sosa et al., 2012); not shown: His6, N-terminal, kept; GCN4, N-terminal, kept

Columns and labels:
[1] = molecular target: B2; assay: SEC-MALS; co-expressed and co-purified samples at >1 mg/ml on Superdex 200 Increase 10/300 GL in 20 mM Tris pH 8.0, 150 mM KCl, 2 mM DTT; conditions: both partners purified
[2] = molecular target: B1; assay: as above; conditions: both partners purified
[3] = molecular target: the molecule itself; assay: as above
[4] = molecular target: the molecule itself; assay: not stated; unpublished findings (Gurusaran and Davies)
[5] = molecular target: T1, GCN4-SUN2 C705A (His6-GCN4 fusion of …); assay: SEC-MALS; co-expressed and co-purified samples at >1 mg/ml on Superdex 200 Increase 10/300 GL in 20 mM Tris pH 8.0, 150 mM KCl, 2 mM DTT; conditions: both partners purified

Binder | stoichiometry N [2] | stoichiometry N [3] | other results
ASGGPCCSHARIPRTPYLVLSYVNGLPPV (domain or fragment, UniProt Q8N205 376-404, looked up, Nesprin-4, human, C-terminal KASH domain, residues 376-404) [MBP-KASH4 (His6-MBP fusion of the KASH domain of human Nesprin-4, residues 376–404)] | 1 binder:target ratio (6:6) |  | stoichiometry N [1]: 1 binder:target ratio (6:6)
B1 |  | 3 | 
KASH5 (construct not told; unpublished findings) (natural protein, human, UniProt Q8N6L0 1-562, looked up, KASH5, human; Told only as 'KASH5 is dimeric (Gurusaran and Davies, unpublished findings)') MDLPEGPVGGPTAEMYLRERPEEARLGMPVSLEEQILNSTFEACDPQRTGTVAVAQVLAYLEAVTGQGPQDARLQTLANSLDPNGEGPKATVDLDTFLVVMRDWIAACQLHGGLELEEETAFQGALTSRQLPSGCPEAEEPANLESFGGEDPRPELQATADLLSSLEDLELSNRRLVGENAKLQRSMETAEEGSARLGEEILALRKQLHSTQQALQFAKAMDEELEDLKTLARSLEEQNRSLLAQARQAEKEQQHLVAEMETLQEENGKLLAERDGVKKRSQELAMEKDTLKRQLFECEHLICQRDTILSERTRDVESLAQTLEEYRVTTQELRLEISRLEEQLSQTYEGPDELPEGAQLRRVGWTELLPPSLGLEIEAIRQKQEVATADLSNPLCGVWQWEEVIHETSEETEFPSEAPAGGQRNFQGEPAHPEEGRKEPSMWLTRREEEEDAESQVTADLPVPLGAPRPGDIPENPPERPARRELQQALVPVMKKLVPVRRRAWGQLCLPPQRLRVTRHPLIPAPVLGLLLLLLLSVLLLGPSPPPTWPHLQLCYLQPPPV |  |  | stoichiometry N [4]: 2
MBP-KASH1 (His6-MBP fusion of the KASH domain of human Nesprin-1, residues 8769–8797) (domain or fragment, Nesprin-1, human, C-terminal KASH domain, residues 8769-8797) not shown | 1 binder:target ratio (6:6) |  | stoichiometry N [5]: 1 binder:target ratio (6:6)
GPSPPPTWPHLQLCYLQPPPV (domain or fragment, UniProt Q8N6L0 542-562, looked up, KASH5, human, C-terminal KASH domain, residues 542-562) [MBP-KASH5 (His6-MBP fusion of the KASH domain of human KASH5, residues 542–562)] | 1 binder:target ratio (6:6) |  | 
B2 |  | 3 | 
